Publication PMC9482650, “Quantitative fragmentomics allow affinity mapping of interactomes” (Nature Communications, 2022)
Where a chain is given by its changes, count along the chain named.

target: ARHGEF12, Q9NZN5-2; assay: holdup assay; set-up: key: below the threshold = too weak to quantify, mostly under pKd 3.1 to 4; conditions: plain residues with an end cap or a label only (N-terminal biotin on a linker: ado-ado)
Sequence (Q9NZN5 other isoform, or with tags, fused parts or gaps): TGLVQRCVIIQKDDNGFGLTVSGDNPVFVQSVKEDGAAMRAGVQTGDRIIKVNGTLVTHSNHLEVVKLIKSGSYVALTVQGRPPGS

Binder | pKd
PEKVSNTTVV [IGSF5, Q9NSI5] | 4.21

target: DLG1_2, Q12959; assay: holdup assay; set-up: key: below the threshold = too weak to quantify, mostly under pKd 3.1 to 4; conditions: plain residues with an end cap or a label only (N-terminal biotin on a linker: ado-ado)
Sequence (Q12959 314-412): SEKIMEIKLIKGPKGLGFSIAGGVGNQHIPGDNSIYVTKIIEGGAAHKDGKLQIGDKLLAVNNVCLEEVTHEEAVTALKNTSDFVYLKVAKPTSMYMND

Binder | pKd
PEKVSNTTVV [IGSF5, Q9NSI5] | 4.64

target: T1, DLG3_1, Q92796; assay: holdup assay; set-up: key: below the threshold = too weak to quantify, mostly under pKd 3.1 to 4; conditions: plain residues with an end cap or a label only (N-terminal biotin on a linker: ado-ado)
T1 sequence (Q92796 125-227, limits assumed, looked up): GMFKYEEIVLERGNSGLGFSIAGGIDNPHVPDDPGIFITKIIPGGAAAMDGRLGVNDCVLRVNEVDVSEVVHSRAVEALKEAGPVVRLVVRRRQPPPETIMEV

Binder | pKd
PEKVSNTTVV [IGSF5, Q9NSI5] | 3.83

target: T2, DLG3_3, Q92796; assay: holdup assay; set-up: key: below the threshold = too weak to quantify, mostly under pKd 3.1 to 4; conditions: plain residues with an end cap or a label only (N-terminal biotin on a linker: ado-ado)
T2 sequence (Q92796 374-475, limits assumed, looked up): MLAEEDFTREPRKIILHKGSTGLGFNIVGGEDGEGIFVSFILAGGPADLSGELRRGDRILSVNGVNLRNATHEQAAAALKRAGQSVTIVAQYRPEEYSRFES

Binder | pKd
PEKVSNTTVV [IGSF5, Q9NSI5] | below the threshold

target: DLG5_1, Q8TDM6; assay: holdup assay; set-up: key: below the threshold = too weak to quantify, mostly under pKd 3.1 to 4; conditions: plain residues with an end cap or a label only (N-terminal biotin on a linker: ado-ado)
Sequence (Q8TDM6 617-713): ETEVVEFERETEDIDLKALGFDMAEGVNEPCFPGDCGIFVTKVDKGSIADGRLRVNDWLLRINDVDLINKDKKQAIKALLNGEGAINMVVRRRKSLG

Binder | pKd
PEKVSNTTVV [IGSF5, Q9NSI5] | below the threshold

target: T3, DVL3, Q92997; assay: holdup assay; set-up: key: below the threshold = too weak to quantify, mostly under pKd 3.1 to 4; conditions: plain residues with an end cap or a label only (N-terminal biotin on a linker: ado-ado)
T3 sequence (Q92997 244-331, limits assumed, looked up): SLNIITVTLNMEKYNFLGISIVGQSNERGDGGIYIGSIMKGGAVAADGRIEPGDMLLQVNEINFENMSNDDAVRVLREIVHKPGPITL

Binder | pKd
PEKVSNTTVV [IGSF5, Q9NSI5] | below the threshold

target: FRMPD2_1, Q68DX3; assay: holdup assay; set-up: key: below the threshold = too weak to quantify, mostly under pKd 3.1 to 4; conditions: plain residues with an end cap or a label only (N-terminal biotin on a linker: ado-ado)
Sequence (Q68DX3 770-861): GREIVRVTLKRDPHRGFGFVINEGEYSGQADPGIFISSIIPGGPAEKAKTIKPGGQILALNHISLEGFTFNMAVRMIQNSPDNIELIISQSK

Binder | pKd
PEKVSNTTVV [IGSF5, Q9NSI5] | below the threshold

target: GOPC, Q9HD26; assay: holdup assay; set-up: key: below the threshold = too weak to quantify, mostly under pKd 3.1 to 4; conditions: plain residues with an end cap or a label only (N-terminal biotin on a linker: ado-ado)

Binder | pKd
PEKVSNTTVV [IGSF5, Q9NSI5] | 3.61

target: GORASP2, Q9H8Y8; assay: holdup assay; set-up: key: below the threshold = too weak to quantify, mostly under pKd 3.1 to 4; conditions: plain residues with an end cap or a label only (N-terminal biotin on a linker: ado-ado)

Binder | pKd
PEKVSNTTVV [IGSF5, Q9NSI5] | 4.33

target: GRASP, Q7Z6J2; assay: holdup assay; set-up: key: below the threshold = too weak to quantify, mostly under pKd 3.1 to 4; conditions: plain residues with an end cap or a label only (N-terminal biotin on a linker: ado-ado)
Sequence (Q7Z6J2 96-193): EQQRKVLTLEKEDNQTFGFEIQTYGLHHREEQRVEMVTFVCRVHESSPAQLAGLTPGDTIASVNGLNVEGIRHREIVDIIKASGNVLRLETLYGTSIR

Binder | pKd
PEKVSNTTVV [IGSF5, Q9NSI5] | 4.38

target: GRID2IP_1, A4D2P6; assay: holdup assay; set-up: key: below the threshold = too weak to quantify, mostly under pKd 3.1 to 4; conditions: plain residues with an end cap or a label only (N-terminal biotin on a linker: ado-ado)
Sequence (A4D2P6 1-87): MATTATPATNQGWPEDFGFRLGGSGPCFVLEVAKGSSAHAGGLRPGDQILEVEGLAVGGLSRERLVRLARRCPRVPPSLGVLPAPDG

Binder | pKd
PEKVSNTTVV [IGSF5, Q9NSI5] | below the threshold

target: Inadl_1, Q8NI35; assay: holdup assay; set-up: key: below the threshold = too weak to quantify, mostly under pKd 3.1 to 4; conditions: plain residues with an end cap or a label only (N-terminal biotin on a linker: ado-ado)
Sequence (Q8NI35 113-229): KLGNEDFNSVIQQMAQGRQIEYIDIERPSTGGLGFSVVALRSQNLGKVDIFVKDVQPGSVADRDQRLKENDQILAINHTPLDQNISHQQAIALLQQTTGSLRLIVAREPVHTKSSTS

Binder | pKd
PEKVSNTTVV [IGSF5, Q9NSI5] | below the threshold

target: Inadl_10, Q8NI35; assay: holdup assay; set-up: key: below the threshold = too weak to quantify, mostly under pKd 3.1 to 4; conditions: plain residues with an end cap or a label only (N-terminal biotin on a linker: ado-ado)
Sequence (Q8NI35 1673-1763): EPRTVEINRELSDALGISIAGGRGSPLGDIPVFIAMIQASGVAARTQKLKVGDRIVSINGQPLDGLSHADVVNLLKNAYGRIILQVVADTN

Binder | pKd
PEKVSNTTVV [IGSF5, Q9NSI5] | below the threshold

target: Inadl_5, Q8NI35; assay: holdup assay; set-up: key: below the threshold = too weak to quantify, mostly under pKd 3.1 to 4; conditions: plain residues with an end cap or a label only (N-terminal biotin on a linker: ado-ado)
Sequence (Q8NI35 673-780): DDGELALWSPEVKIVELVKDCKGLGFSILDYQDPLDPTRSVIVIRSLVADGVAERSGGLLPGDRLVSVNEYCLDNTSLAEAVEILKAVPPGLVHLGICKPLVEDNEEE

Binder | pKd
PEKVSNTTVV [IGSF5, Q9NSI5] | below the threshold

target: Inadl_9, Q8NI35; assay: holdup assay; set-up: key: below the threshold = too weak to quantify, mostly under pKd 3.1 to 4; conditions: plain residues with an end cap or a label only (N-terminal biotin on a linker: ado-ado)
Sequence (Q8NI35 1530-1615): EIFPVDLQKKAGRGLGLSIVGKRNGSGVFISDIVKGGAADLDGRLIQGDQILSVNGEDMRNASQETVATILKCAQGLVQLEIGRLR

Binder | pKd
PEKVSNTTVV [IGSF5, Q9NSI5] | below the threshold

target: T4, LIN7A, O14910; assay: holdup assay; set-up: key: below the threshold = too weak to quantify, mostly under pKd 3.1 to 4; conditions: plain residues with an end cap or a label only (N-terminal biotin on a linker: ado-ado)
T4 sequence (O14910 103-200, limits assumed, looked up): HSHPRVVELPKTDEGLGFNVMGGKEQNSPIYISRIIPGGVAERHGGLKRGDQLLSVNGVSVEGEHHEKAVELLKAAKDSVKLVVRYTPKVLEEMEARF

Binder | pKd
PEKVSNTTVV [IGSF5, Q9NSI5] | below the threshold

target: T5, LIN7B, Q9HAP6; assay: holdup assay; set-up: key: below the threshold = too weak to quantify, mostly under pKd 3.1 to 4; conditions: plain residues with an end cap or a label only (N-terminal biotin on a linker: ado-ado)
T5 sequence (Q9HAP6 88-185, limits assumed, looked up): T4 sequence (O14910 103-200, limits assumed, looked up) with S2A, V20I, I35V, E42D, H65Q, K77Q, D78G, K89R

Binder | pKd
PEKVSNTTVV [IGSF5, Q9NSI5] | 3.69

target: LNX1_1, Q8TBB1; assay: holdup assay; set-up: key: below the threshold = too weak to quantify, mostly under pKd 3.1 to 4; conditions: plain residues with an end cap or a label only (N-terminal biotin on a linker: ado-ado)
Sequence (Q8TBB1 261-371): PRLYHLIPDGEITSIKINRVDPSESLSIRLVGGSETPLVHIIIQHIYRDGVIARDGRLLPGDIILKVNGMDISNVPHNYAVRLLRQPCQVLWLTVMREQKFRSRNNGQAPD

Binder | pKd
PEKVSNTTVV [IGSF5, Q9NSI5] | 3.67

target: MAGI2_2, Q86UL8; assay: holdup assay; set-up: key: below the threshold = too weak to quantify, mostly under pKd 3.1 to 4; conditions: plain residues with an end cap or a label only (N-terminal biotin on a linker: ado-ado)
Sequence (Q86UL8 410-522): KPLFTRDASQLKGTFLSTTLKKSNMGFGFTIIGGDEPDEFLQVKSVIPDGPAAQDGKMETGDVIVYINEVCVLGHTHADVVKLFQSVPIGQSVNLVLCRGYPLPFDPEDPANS

Binder | pKd
PEKVSNTTVV [IGSF5, Q9NSI5] | 4.13

target: MAGI2_6, Q86UL8; assay: holdup assay; set-up: key: below the threshold = too weak to quantify, mostly under pKd 3.1 to 4; conditions: plain residues with an end cap or a label only (N-terminal biotin on a linker: ado-ado)
Sequence (Q86UL8 1141-1229): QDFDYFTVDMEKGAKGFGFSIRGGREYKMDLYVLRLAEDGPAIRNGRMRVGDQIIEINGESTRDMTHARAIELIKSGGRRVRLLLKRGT

Binder | pKd
PEKVSNTTVV [IGSF5, Q9NSI5] | below the threshold

target: MAST2, Q6P0Q8; assay: holdup assay; set-up: key: below the threshold = too weak to quantify, mostly under pKd 3.1 to 4; conditions: plain residues with an end cap or a label only (N-terminal biotin on a linker: ado-ado)
Sequence (Q6P0Q8 1099-1202): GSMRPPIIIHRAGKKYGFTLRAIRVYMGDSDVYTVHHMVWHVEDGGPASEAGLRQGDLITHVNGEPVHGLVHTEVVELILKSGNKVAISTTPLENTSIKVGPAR

Binder | pKd
PEKVSNTTVV [IGSF5, Q9NSI5] | 4.99

target: T6, MPDZ_12, O75970; assay: holdup assay; set-up: key: below the threshold = too weak to quantify, mostly under pKd 3.1 to 4; conditions: plain residues with an end cap or a label only (N-terminal biotin on a linker: ado-ado)
T6 sequence (O75970 1857-1958, limits assumed, looked up): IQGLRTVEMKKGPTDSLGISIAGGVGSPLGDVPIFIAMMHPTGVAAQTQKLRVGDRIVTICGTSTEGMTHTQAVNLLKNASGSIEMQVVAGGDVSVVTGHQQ

Binder | pKd
PEKVSNTTVV [IGSF5, Q9NSI5] | below the threshold

target: NHERF2_2, Q15599; assay: holdup assay; set-up: key: below the threshold = too weak to quantify, mostly under pKd 3.1 to 4; conditions: plain residues with an end cap or a label only (N-terminal biotin on a linker: ado-ado)
Sequence (Q15599 142-238): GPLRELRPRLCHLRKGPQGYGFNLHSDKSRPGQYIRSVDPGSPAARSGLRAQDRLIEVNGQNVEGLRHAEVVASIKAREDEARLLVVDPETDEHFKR

Binder | pKd
PEKVSNTTVV [IGSF5, Q9NSI5] | below the threshold

target: NHERF4_4, Q86UT5; assay: holdup assay; set-up: key: below the threshold = too weak to quantify, mostly under pKd 3.1 to 4; conditions: plain residues with an end cap or a label only (N-terminal biotin on a linker: ado-ado)
Sequence (Q86UT5 464-550): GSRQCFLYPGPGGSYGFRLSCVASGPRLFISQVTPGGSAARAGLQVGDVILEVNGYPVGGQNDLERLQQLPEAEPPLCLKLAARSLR

Binder | pKd
PEKVSNTTVV [IGSF5, Q9NSI5] | below the threshold

target: T7, PCLO, Q9Y6V0; assay: holdup assay; set-up: key: below the threshold = too weak to quantify, mostly under pKd 3.1 to 4; conditions: plain residues with an end cap or a label only (N-terminal biotin on a linker: ado-ado)
T7 sequence (Q9Y6V0 4491-4600, limits assumed, looked up): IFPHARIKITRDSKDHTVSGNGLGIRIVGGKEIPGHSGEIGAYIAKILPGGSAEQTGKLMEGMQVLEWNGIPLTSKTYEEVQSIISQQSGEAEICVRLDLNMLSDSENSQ

Binder | pKd
PEKVSNTTVV [IGSF5, Q9NSI5] | below the threshold

target: T8, PTPN13_1, Q12923; assay: holdup assay; set-up: key: below the threshold = too weak to quantify, mostly under pKd 3.1 to 4; conditions: plain residues with an end cap or a label only (N-terminal biotin on a linker: ado-ado)
T8 sequence (Q12923 1088-1188, limits assumed, looked up): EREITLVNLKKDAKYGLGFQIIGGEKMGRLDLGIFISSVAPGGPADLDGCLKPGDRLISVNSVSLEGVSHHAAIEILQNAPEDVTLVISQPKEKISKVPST

Binder | pKd
PEKVSNTTVV [IGSF5, Q9NSI5] | below the threshold

target: T9, SHANK1, Q9Y566; assay: holdup assay; set-up: key: below the threshold = too weak to quantify, mostly under pKd 3.1 to 4; conditions: plain residues with an end cap or a label only (N-terminal biotin on a linker: ado-ado)
T9 sequence (Q9Y566 658-767, limits assumed, looked up): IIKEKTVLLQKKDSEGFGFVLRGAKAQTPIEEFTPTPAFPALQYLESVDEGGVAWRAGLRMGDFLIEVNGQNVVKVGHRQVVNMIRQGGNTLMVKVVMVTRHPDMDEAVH

Binder | pKd
PEKVSNTTVV [IGSF5, Q9NSI5] | below the threshold

target: T10, TX1BP3, O14907; assay: holdup assay; set-up: key: below the threshold = too weak to quantify, mostly under pKd 3.1 to 4; conditions: plain residues with an end cap or a label only (N-terminal biotin on a linker: ado-ado)
T10 sequence (O14907 10-122, limits assumed, looked up): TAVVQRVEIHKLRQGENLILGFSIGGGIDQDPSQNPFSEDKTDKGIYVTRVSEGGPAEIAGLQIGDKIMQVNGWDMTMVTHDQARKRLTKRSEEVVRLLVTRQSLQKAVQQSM

Binder | pKd
PEKVSNTTVV [IGSF5, Q9NSI5] | below the threshold
